Data on 1 substance can be found in publication PMC4159269.

Assay in all cases: co-IP; HEK293T co-transfected with FLAG-Siah construct and HA-PHD3; lysate on anti-FLAG M2 agarose beads, 4°C 1 hour, washed with NP40 lysis buffer; blot with anti-HA; densitometry as percentage of WT Siah2 SBD for Fig. 7c
Test [1] concerns the target SBD[S1]^NT[S2]^CT (SBD chimera with Siah1 N-terminus and Siah2 C-terminus) (human).
For test [2], the target named is [S1-6Mut]^NT[S2]^CT (6Mut = E17S/P21H/A26P/P57S/Q62A/F98H) (human).
The target of test [3] is [S1-8Mut]^NT[S2]^CT (8Mut = N3S/E17S/P21H/A26P/F34Y/P57S/Q62A/F98H) (human).

In the case of “HA-PHD3 (prolyl hydroxylase 3) (from UniProt Q9H6Z9 1-239) (natural protein)”, the binding as percentage of the binding of WT Siah2 SBD to PHD3 (densitometry) amounted to 4 percent in test [1], 29 percent in test [2] and 48 percent in test [3].
